B1: LINE1-full (parent)
chain: UACGUAGGUGGUUUUCCCCUGAUAGUGCUAAGGGGGCCUGGAAGUUUGGACUGGGCAGAGCUCAACACAGCGUGGCAAAGUGGCUGUGGCUAGACUGCCUCUCUGGAUUCCUCGUCACUCAGCAGGGCAUCUCUGAGAGAAAUGCC

Variants of: B1
Assay: self-cleavage, relative activity (ratio to wild type); higher = more cleavage; in vitro, sequencing; the parent is a self-cleaving ribozyme

Compared with UACUUAGGUGGUUUUCCCCUGAUAGUGCUGAGGGGGCCUGGAAGUUUGGACUGGGCAGAGCUCAACACAGCGUGGCAAAGUGGCUGUGGCUAGACUGCCUCUCUGGAUUCCUCGUCACUCAGCAGGGCAUCUCUGAGAGAAAUGCC [G4U A30G], UACAUAGGUGGUUUUCCCCUAAUAGUGCUAAGGGGGCCUGGAAGUUUGGACUGGGCAGAGCUCAACACAGCGUGGCAAAGUGGCUGUGGCUAGACUGCCUCUCUGGAUUCCUCGUCACUCAGCAGGGCAUCUCUGAGAGAAAUGCC [G4A G21A] is lower in self-cleavage: 1.11 for the first, 0.76 for the second.

Going from UACCUAGGUGGUUUUCCCCUGAUAGUGCUAAGGGGGCCUGGAAGUUUGGACUGGGCAGAGCUCAACACAGCGUGGCAAAGUGGCUGUGGCUAGACAGCCUCUCUGGAUUCCUCGUCACUCAGCAGGGCAUCUCUGAGAGAAAUGCC [G4C U96A] to UACCUAGGUGGUUUUCCCCUGAUAGUGCUAAGGGGGCCUGGAAGUUUGGACUGGGCAGAGCUCGACACAGCGUGGCAAAGUGGCUGUGGCUAGACUGCCUCUCUGGAUUCCUCGUCACUCAGCAGGGCAUCUCUGAGAGAAAUGCC [G4C A64G], the self-cleavage rises from 0.12 to 1.25.

Going from UACAUAGGUGGUUUUCCCCUGAUAGUGCUAAGGGGGCCUGGAAGUUUGGACUGGGCAGAGCUCAACACAGCGUGGCAAAGUGGCUGUGGCUAGACCGCCUCUCUGGAUUCCUCGUCACUCAGCAGGGCAUCUCUGAGAGAAAUGCC [G4A U96C] to UACAUAGGUGGUUUUCCCCUGAUAGUGCUAAGGGGGCCUGGAAGUUUGGACUGGGCAGAGCUCAACACAGCGUGGCAAAGUGGCUGUGGCUAGACUGCCUCUCUGGAUUCCUCGUCACUCAGCAGGGCAUCUAUGAGAGAAAUGCC [G4A C133A], the self-cleavage rises from 0.15 to 0.79.

Going from UACUUAGGUGGUUUUCCCCUGAUAGUGCUAAGGGGGCCUGGAAGUUUGGACUGGGCAGAGCUCAACACAGCGUGGCGAAGUGGCUGUGGCUAGACUGCCUCUCUGGAUUCCUCGUCACUCAGCAGGGCAUCUCUGAGAGAAAUGCC [G4U A77G] to UACAUAGGUGGUUUUCCCCUGAUAGAGCUAAGGGGGCCUGGAAGUUUGGACUGGGCAGAGCUCAACACAGCGUGGCAAAGUGGCUGUGGCUAGACUGCCUCUCUGGAUUCCUCGUCACUCAGCAGGGCAUCUCUGAGAGAAAUGCC [G4A U26A], the self-cleavage falls from 2.68 to 0.82.

Going from UACCUAGGUGGUUUUCCCCUGAUAGUGCUAAGGGGGCCUGGAAGUUUGGACUGGGCAGAGCUCAACACAGCGUGGCAGAGUGGCUGUGGCUAGACUGCCUCUCUGGAUUCCUCGUCACUCAGCAGGGCAUCUCUGAGAGAAAUGCC [G4C A78G] to UACCUAGGUGGUUUUCCCCUGAUAGUGCUAAGGGGGCCUGGAAGUUUGGACUGGGCAGAGCUCAACACAGCGUGGCGAAGUGGCUGUGGCUAGACUGCCUCUCUGGAUUCCUCGUCACUCAGCAGGGCAUCUCUGAGAGAAAUGCC [G4C A77G], the self-cleavage rises from 0.81 to 2.9.

First: UACAUAGGUGGUUUUCCCCUGAUAGUGCUAAGGGGGCCUGGAAGUUUGGACUGGGCAGAGCUCAACACAGCGUGGCAAAGUGGCCGUGGCUAGACUGCCUCUCUGGAUUCCUCGUCACUCAGCAGGGCAUCUCUGAGAGAAAUGCC [G4A U85C]
Second: UACAUAGGUGGUUUUCCCCUGAUAGUGCUAAGGGGGCCUGGAAGUUUGGACUGAGCAGAGCUCAACACAGCGUGGCAAAGUGGCUGUGGCUAGACUGCCUCUCUGGAUUCCUCGUCACUCAGCAGGGCAUCUCUGAGAGAAAUGCC [G4A G54A]
The self-cleavage of the first is lower: 0.13 for the first, 0.6 for the second.

Compared with UACAUAGGUGGUUUUCCCCUGAUAGUGCUAAGGGGGCCUGGAAGUUUGGACUGGGCAGAGCUCAACACAGCGUGGCAAAGUGGCUGUGGCUAGACUGCCUCUCUGGAUUCCUCGCCACUCAGCAGGGCAUCUCUGAGAGAAAUGCC [G4A U115C], UACAUAGGUGGUUUUCCCCUGAUAGUGCUAAGGGGGCCUGGAAGUUUGGACUGGGCAGAGCUCAACACAGCGUGGCAAAGUGGCUGUGGCUAGACUGCCUCUCUGGAUUCCUCGACACUCAGCAGGGCAUCUCUGAGAGAAAUGCC [G4A U115A] is higher in self-cleavage: 0.9 for the first, 1.14 for the second.

Compared with UACAUAGGUGGUUUUCCCCUGAUAGUGCUAAGGGGGCCUGGAAGUUUGGACUGGGCAGAGCUCAACACAGCGCGGCAAAGUGGCUGUGGCUAGACUGCCUCUCUGGAUUCCUCGUCACUCAGCAGGGCAUCUCUGAGAGAAAUGCC [G4A U73C], UACAUAGGUGGUUUUCCCCUGAUAGUGCUAAGGGGGCCUGGAAGUUUGGACUGGGCAGAGCUCAACACAGCGAGGCAAAGUGGCUGUGGCUAGACUGCCUCUCUGGAUUCCUCGUCACUCAGCAGGGCAUCUCUGAGAGAAAUGCC [G4A U73A] is lower in self-cleavage: 1.68 for the first, 0.97 for the second.

First: UACAUAGGUGGUUUUCCCCUGAUAGUGCUAAGGGGGCCUGGAAGUUUGGACUGGGCAGAGCUCAACACAGCGUGGCAAAGUGGCUGUGGCUAGACUGCCUCUCUGGACUCCUCGUCACUCAGCAGGGCAUCUCUGAGAGAAAUGCC [G4A U108C]
Second: UACAUAGGUGGUUUUCCCCUGAUAGUGCUAAGGGGGCCUGGAAGUUAGGACUGGGCAGAGCUCAACACAGCGUGGCAAAGUGGCUGUGGCUAGACUGCCUCUCUGGAUUCCUCGUCACUCAGCAGGGCAUCUCUGAGAGAAAUGCC [G4A U47A]
The self-cleavage of the first is higher: 1.04 for the first, 0.52 for the second.

Compared with UACAUAGGUGGUUAUCCCCUGAUAGUGCUAAGGGGGCCUGGAAGUUUGGACUGGGCAGAGCUCAACACAGCGUGGCAAAGUGGCUGUGGCUAGACUGCCUCUCUGGAUUCCUCGUCACUCAGCAGGGCAUCUCUGAGAGAAAUGCC [G4A U14A], UACAUAGGUGGUUCUCCCCUGAUAGUGCUAAGGGGGCCUGGAAGUUUGGACUGGGCAGAGCUCAACACAGCGUGGCAAAGUGGCUGUGGCUAGACUGCCUCUCUGGAUUCCUCGUCACUCAGCAGGGCAUCUCUGAGAGAAAUGCC [G4A U14C] is lower in self-cleavage: 0.75 for the first, 0.59 for the second.

First: UACAUAGGUGGUUUUCCCCUGAUAGUGCUAAGGGGGCCUAGAAGUUUGGACUGGGCAGAGCUCAACACAGCGUGGCAAAGUGGCUGUGGCUAGACUGCCUCUCUGGAUUCCUCGUCACUCAGCAGGGCAUCUCUGAGAGAAAUGCC [G4A G40A]
Second: UACCUAGGUGGUUUUCCCCUGAUAGUGCUAAGGGGGCCUGGAAGUUUGGACUGGGCAGAGCUCAACACAGCGUGGCAAGGUGGCUGUGGCUAGACUGCCUCUCUGGAUUCCUCGUCACUCAGCAGGGCAUCUCUGAGAGAAAUGCC [G4C A79G]
The self-cleavage of the first is higher: 1.24 for the first, 0.29 for the second.

Compared with UACCUAGGUGGUUUUCCCCUGAUAGUGCUAAGGGGGCCUGGAAGUUUGGACUGGGCAGAGCUCAACACAGCGUGGCAAAGUGGCUGUGGCUAGACUGCCUCUCUGGAUUCCUCGCCACUCAGCAGGGCAUCUCUGAGAGAAAUGCC [G4C U115C], UACAUAGGUGGUUUUCCCCGGAUAGUGCUAAGGGGGCCUGGAAGUUUGGACUGGGCAGAGCUCAACACAGCGUGGCAAAGUGGCUGUGGCUAGACUGCCUCUCUGGAUUCCUCGUCACUCAGCAGGGCAUCUCUGAGAGAAAUGCC [G4A U20G] is lower in self-cleavage: 2.15 for the first, 0.62 for the second.

Going from UACAUAGGUGGUUUUCCCCUGAUAGUGCUAAGGGGGCCUGGAAGUUUGGACUGGGCAGAGCUCAACACAGCGUGGCAAAGUGGCUGUGGCUAGACUGCCUCUCUGGAUUCCUCGUCACUCAGCAGGGCAUCUCUGAGAAAAAUGCC [G4A G139A] to UACAUAGGUGGUUUUCCCCUGAUAGUGCUAAGGGGGCCUGGAAGUUUGGACUGGGCAGAGCGCAACACAGCGUGGCAAAGUGGCUGUGGCUAGACUGCCUCUCUGGAUUCCUCGUCACUCAGCAGGGCAUCUCUGAGAGAAAUGCC [G4A U62G], the self-cleavage falls from 1.21 to 0.

First: UACAUAGGUGGUUUUCCCCUGAUAGUGCUAAGGGGGCCUGGAAGUUUGGACUGGGCAGAGCUCAACACAGCGUGGCAAAGUGGCUGUGGCUAGACUGCCUCUCUGGAUUCCUCGUCACUCAGCAGGGCACCUCUGAGAGAAAUGCC [G4A U130C]
Second: UACAUAGGUGGUUUUCCCCUGAUAGUGCUAAGGGGGCCUGGAAGUUUGGACUGGGCAGAGCUCAACACAGCGUGGCAAAGAGGCUGUGGCUAGACUGCCUCUCUGGAUUCCUCGUCACUCAGCAGGGCAUCUCUGAGAGAAAUGCC [G4A U81A]
The self-cleavage of the first is higher: 1.38 for the first, 1.34 for the second.

Compared with UACCUAGGUGGUUUUCCCCUGAUAGUGCUAAGGGGGCCUGGAAGUUUGGACUGGGCAGAGCUCAACACAGCGUGGCAAAGUGGCUGUGGCUAGACUGCCUCUCUGGAUUCCUCGUCACUCAGCGGGGCAUCUCUGAGAGAAAUGCC [G4C A124G], UACAUAGGUGGUUUUCCCCUGAUAGUGCUAAGGGGGCCUGGAAGUUUGGACUGGGCAGAGCUCAACACAGCGUGGCAAAGUGGCUGUGGCUAGACUGCCUCUCCGGAUUCCUCGUCACUCAGCAGGGCAUCUCUGAGAGAAAUGCC [G4A U104C] is higher in self-cleavage: 0.48 for the first, 0.83 for the second.

Compared with UACAUAGGUGAUUUUCCCCUGAUAGUGCUAAGGGGGCCUGGAAGUUUGGACUGGGCAGAGCUCAACACAGCGUGGCAAAGUGGCUGUGGCUAGACUGCCUCUCUGGAUUCCUCGUCACUCAGCAGGGCAUCUCUGAGAGAAAUGCC [G4A G11A], UACCUAGGUGGUUUUCCCCUGAUAGUGCUAAGGGGGCCUGGAAGUUUGGACUGGGCAGAGCUCAACACAGCGUGGCAAAGUGGCUGUGGCUAGACUGCCUCUCUGGAUUCCUCGUCACUCAGCAGGGCAUCUCUGAGAGAGAUGCC [G4C A141G] is lower in self-cleavage: 0.58 for the first, 0.5 for the second.

Going from UACCUAGGUGGUUUUCCCCUGAUAGUGCUAAGGGGGCCUGGAAGUUUGGACUGGGCAGAGCUCAACACAGCGUGGCAAAGUGGCUGUGGCUAGACUGCCUCUCUGGUUUCCUCGUCACUCAGCAGGGCAUCUCUGAGAGAAAUGCC [G4C A107U] to UACAUAGGUGGGUUUCCCCUGAUAGUGCUAAGGGGGCCUGGAAGUUUGGACUGGGCAGAGCUCAACACAGCGUGGCAAAGUGGCUGUGGCUAGACUGCCUCUCUGGAUUCCUCGUCACUCAGCAGGGCAUCUCUGAGAGAAAUGCC [G4A U12G], the self-cleavage falls from 1.49 to 1.23.

First: UACAUAGGUGGUUUUCCCCUGAUAGUGCUAAGGGGGCCUGGAAGUUUGGACCGGGCAGAGCUCAACACAGCGUGGCAAAGUGGCUGUGGCUAGACUGCCUCUCUGGAUUCCUCGUCACUCAGCAGGGCAUCUCUGAGAGAAAUGCC [G4A U52C]
Second: UACAUAGGUGGUUUUCCCCUGACAGUGCUAAGGGGGCCUGGAAGUUUGGACUGGGCAGAGCUCAACACAGCGUGGCAAAGUGGCUGUGGCUAGACUGCCUCUCUGGAUUCCUCGUCACUCAGCAGGGCAUCUCUGAGAGAAAUGCC [G4A U23C]
The self-cleavage of the first is lower: 0.88 for the first, 1.11 for the second.

First: UACAUAGGUGGUUUUCCCCUGAUAGUGCUAAGGGGGCCUGGAAGUUUGGACUGGGCAGAGCUCAACACAGCGUGGCAAAGUGGCUGCGGCUAGACUGCCUCUCUGGAUUCCUCGUCACUCAGCAGGGCAUCUCUGAGAGAAAUGCC [G4A U87C]
Second: UACAUAGGUGGUUUUCCCCUGAUAGUGCUAAGGGGGCCUGGAAGUUUGGACUGGGCAGAGCUCAACACAGCGUGGCAAAGUGGCUGGGGCUAGACUGCCUCUCUGGAUUCCUCGUCACUCAGCAGGGCAUCUCUGAGAGAAAUGCC [G4A U87G]
The self-cleavage of the first is higher: 0.1 for the first, 0.07 for the second.

With UACCUAGGUGGUUUUCCCCUGAUAGUGCUAAGGGGGCCUGGAAGUUUGGACUGGGCAGAGCUCAACACAGCGUGGCAAAGUGGCUGUGGCUAGACUGCCUCUCUGGAUUCCACGUCACUCAGCAGGGCAUCUCUGAGAGAAAUGCC [G4C U112A] the self-cleavage was 0.75.
